Residue numbers refer to the chain shown, from its start. Names and notes keep the numbering of the source. Like-named read-outs stand apart in the source and are kept apart here.
What was measured:
PcrA helicase = PcrA helicase (Geobacillus stearothermophilus, UniProt P56255); test: Steady-state ATP hydrolysis by PcrA helicase monitored with the biosensor; type: biochemical, Bacillus stearothermophilus; details: for initial rate of ADP generation: 3.8 μM dT16, 10 μM MDCC-ParM, 20° C.
[1] = 37° C.; reported (16); cited from earlier work
[2] = reported (19); read-out: dissociation constant for ethenoADP; cited from earlier work
[3] = reported (19), cited from earlier work
[4] = Fluorescence titration of labeled ParM with ADP; type: binding; details: Table 2, 20° C.; for ADP F+ADP/F−ADP: MDCC-ParM mutants; for Kd: fluorescence titration
Protocol: MDCC fluorescence was excited at 431 nm and detected at 474 nm, for the rhodamine-labeled proteins, excitation and emission wavelengths of 553 nm and 578 nm were used. […] The fraction of ParM bound to ADP was calculated from the fluorescence intensities.
The MDCC fluorescence was excited at 431 nm and emission was recorded at 474 nm. The equilibrium dissociation constants were determined by fitting a quadratic binding curve to the data.
(§1) The equilibrium dissociation constants were determined by fitting a quadratic binding curve to the data and are listed in Table Y. For the plot the experimental fluorescence intensities were normalized to the maximal fluorescence change obtained at saturation with ADP.
(§2) [formula] where [P] and [L] are the total concentrations of protein and ligand, respectively, Kd is the dissociation constant and Fmin and Fmax are the fluorescence intensities of the free and ligand bound protein.
(§3) Fluorescence spectra and titrations were measured in a Cary Eclipse spectrofluorimeter (Varian). Excitation and emission spectra were recorded with 5 nm slit width at emission and excitation wavelength of 576 nm and 553 nm, respectively. In titration experiments rhodamine fluorescence was measured at the same excitation/emission wavelength. Titration data were analyzed with a quadratic binding curve using the program Grafit 5.0 (7).

[5] = Fluorescence titration of labeled ParM with ATP; type: binding; details: Table 2; for ATP F+ATP/F−ATP: MDCC-ParM mutants; for ATP F+ATP/F−ATP / Kd: 20° C.; for Kd: highly purified ATP containing only 0.03% ADP
Protocol: The MDCC fluorescence was excited at 431 nm and emission was recorded at 474 nm. The equilibrium dissociation constants were determined by fitting a quadratic binding curve to the data. For the plot the experimental fluorescence intensities were converted to the nucleotide bound fraction of ParM.
as §1
ADP and ATP were purchased from Sigma at the highest purity available. The purity of the nucleotides was analysed by HPLC using a Partisphere SAX column, 125×4.5 mm (Whatman). Nucleotide separation was performed isocratic with 0.3 M (NH4)2HPO4 buffer pH 4.0, 25% MeOH, and the absorbance at 260 nm was monitored.
as §2, §3

[6] = Stopped-flow kinetics of ADP binding and dissociation; details: Table 3; for kon: ADP association, stopped-flow; for kon / koff: 20° C.; for Kd: calculated as koff/kon; for koff: displacement with unlabeled ParM
[7] = 2 nM PcrA, 0.5 μM dT20, 5 μM MDCC-ParM, set of calibration curves
[8] = measured with phosphate biosensor MDCC-PBP

B1: PcrA: DNA helicase from Bacillus stearothermophilus involved in plasmid replication (protein, UniProt P56255 1-724, looked up)
ATP-dependent DNA helicase …: MNFLSEQLLAHLNKEQQEAVRTTEGPLLIMAGAGSGKTRVLTHRIAYLMAEKHVAPWNILAITFTNKAAREMRERVQSLLGGAAEDVWISTFHSMCVRILRRDIDRIGINRNFSILDPTDQLSVMKTILKEKNIDPKKFEPRTILGTISAAKNELLPPEQFAKRASTYYEKVVSDVYQEYQQRLLRNHSLDFDDLIMTTIQLFDRVPDVLHYYQYKFQYIHIDEYQDTNRAQYTLVKKLAERFQNICAVGDADQSIYRWRGADIQNILSFERDYPNAKVILLEQNYRSTKRILQAANEVIEHNVNRKPKRIWTENPEGKPILYYEAMNEADEAQFVAGRIREAVERGERRYRDFAVLYRTNAQSRVMEEMLLKANIPYQIVGGLKFYDRKEIKDILAYLRVIANPDDDLSLLRIINVPKRGIGASTIDKLVRYAADHELSLFEALGELEMIGLGAKAAGALAAFRSQLEQWTQLQEYVSVTELVEEVLDKSGYREMLKAERTIEAQSRLENLDEFLSVTKHFENVSDDKSLIAFLTDLALISDLDELDGTEQAAEGDAVMLMTLHAAKGLEFPVVFLIGMEEGIFPHNRSLEDDDEMEEERRLAYVGITRAEEELVLTSAQMRTLFGNIQMDPPSRFLNEIPAHLLETASRRQAGASRPAVSRPQASGAVGSWKVGDRANHRKWGIGTVVSVRGGGDDQELDIAFPSPIGIKRLLAKFAPIEKV
- initial rate of ADP generation (PcrA helicase; 1 nM PcrA, 5 μM ATP): 10.4 nM/s
- Km (PcrA helicase; [7]): 1.6 µM
- kcat (PcrA helicase; [7]): 13.7 s⁻¹
- initial rate of ADP generation (PcrA helicase; 2 nM PcrA, 5 μM ATP): 19.9 nM/s
- kcat (PcrA helicase; calibration at 15 μM total nucleotide concentration): 14.0 s⁻¹
- kcat (PcrA helicase; calibration in the absence of ATP): 12.2 s⁻¹
- steady state hydrolysis activity (PcrA helicase; measured with MDCC-ParM, 5 μM ATP, background subtracted): 6.8 s⁻¹
- Km (PcrA helicase; [8]): 1.7 µM
- kcat (PcrA helicase; [8]): 11.5 s⁻¹
- steady state hydrolysis activity (PcrA helicase; [8]): 7.2 s⁻¹
- Michaelis-Menten constant for ATP (PcrA helicase; single calibration used for all ATP concentrations): 1.4 µM

B2: wild-type ParM: prokaryotic actin homologue encoded on Escherichia coli plasmid R1, accession P11904 (protein, listed as Escherichia coli)
chain: MLVFIDDGSTNIKLQWQESDGTIKQHISPNSFKREWAVSFGDKKVFNYTLNGEQYSFDPISPDAVVTTNIAWQYSDVNVVAVHHALLTSGLPVSEVDIVCTLPLTEYYDRNNQPNTENIERKKANFRKKITLNGGDTFTIKDVKVMPESIPAGYEVLQELDELDSLLIIDLGGTTLDISQVMGKLSGISKIYGDSSLGVSLVTSAVKDALSLARTKGSSYLADDIIIHRKDNNYLKQRINDENKISIVTEAMNEALRKLEQRVLNTLNEFSGYTHVMVIGGGAELICDAVKKHTQIRDERFFKTNNSQYDLVNGMYLIGN
- ATPase activity accelerated by polymerization [1]: ~3 min⁻¹
- Kd [2]: 2400 nM
- ethenoATP bound tighter than ethenoADP [3]: 60 fold
- Kd ([3]; read-out: Kd for ethenoATP): 40 nM
- Kd ([3]; read-out: dissociation constant for ethenoATP): 40 nM

B3: T174A T175A: MDCC-ParM (His6/I27C/T174A/T175A/C287A) (conjugate, UniProt P11904 1-320, looked up, variant I27C T174A T175A C287A)
Plasmid segregation protein …: B2 chain with I27C, T174A, T175A, C287A
modifications: MDCC label; His6 tag
- ADP F+ADP/F−ADP [4]: 3.3
- Kd [4]: 330 nM
- Kd ratio ATP/ADP [5]: 324
- ATP F+ATP/F−ATP [5]: 3.2
- Kd [5]: 107000 nM
- kon [6]: 980000 M⁻¹ s⁻¹
- Kd [6]: 220 nM
- koff [6]: 0.22 s⁻¹

B4: T175H: MDCC-ParM (His6/I27C/T175H/C287A) (conjugate, UniProt P11904 1-320, looked up, variant I27C T175H C287A)
Plasmid segregation protein …: B2 chain with I27C, T175H, C287A
modifications: MDCC label; His6 tag
- ADP F+ADP/F−ADP [4]: 3.2
- Kd [4]: 400 nM
- Kd ratio ATP/ADP [5]: 0.4
- ATP F+ATP/F−ATP [5]: 3.9
- Kd [5]: 160 nM

B5: T174A: MDCC-ParM (His6/I27C/T174A/C287A) (conjugate, UniProt P11904 1-320, looked up, variant I27C T174A C287A)
Plasmid segregation protein …: B2 chain with I27C, T174A, C287A
modifications: MDCC label; His6 tag
- ADP F+ADP/F−ADP [4]: 2.9
- Kd [4]: 390 nM
- Kd ratio ATP/ADP [5]: 164
- ATP F+ATP/F−ATP [5]: 3.1
- Kd [5]: 64000 nM

B6: S9A: MDCC-ParM (His6/S9A/I27C/C287A) (conjugate, UniProt P11904 1-320, looked up, variant S9A I27C C287A)
Plasmid segregation protein …: B2 chain with S9A, I27C, C287A
modifications: MDCC label; His6 tag
- ADP F+ADP/F−ADP [4]: 3.1
- Kd [4]: 2500 nM
- Kd ratio ATP/ADP [5]: 39
- ATP F+ATP/F−ATP [5]: 2.9
- Kd [5]: 98000 nM

B7: T175L: MDCC-ParM (His6/I27C/T175L/C287A) (conjugate, UniProt P11904 1-320, looked up, variant I27C T175L C287A)
Plasmid segregation protein …: B2 chain with I27C, T175L, C287A
modifications: MDCC label; His6 tag
- ADP F+ADP/F−ADP [4]: 1.9
- Kd [4]: 1570 nM
- Kd ratio ATP/ADP [5]: 324
- ATP F+ATP/F−ATP [5]: 2.3
- Kd [5]: 507000 nM
- kon [6]: 340000 M⁻¹ s⁻¹
- Kd [6]: 810 nM
- koff [6]: 0.28 s⁻¹

B8: E148R: MDCC-ParM (His6/I27C/E148R/C287A) (conjugate, UniProt P11904 1-320, looked up, variant I27C E148R C287A)
Plasmid segregation protein …: B2 chain with I27C, E148R, C287A
modifications: MDCC label, His6 tag
- ADP F+ADP/F−ADP [4]: <1.1
- ATP F+ATP/F−ATP [5]: <1.1

B9: S9Q: MDCC-ParM (His6/S9Q/I27C/C287A) (conjugate, UniProt P11904 1-320, looked up, variant S9Q I27C C287A)
Plasmid segregation protein …: B2 chain with S9Q, I27C, C287A
modifications: MDCC label; His6 tag
- ADP F+ADP/F−ADP [4]: 3.2
- Kd [4]: 1660 nM
- Kd ratio ATP/ADP [5]: 40
- ATP F+ATP/F−ATP [5]: 2.8
- Kd [5]: 66000 nM

B10: T175N: MDCC-ParM (His6/I27C/T175N/C287A) (conjugate, UniProt P11904 1-320, looked up, variant I27C T175N C287A)
Plasmid segregation protein …: B2 chain with I27C, T175N, C287A
modifications: MDCC label; His6 tag
- ADP F+ADP/F−ADP [4]: 3.4
- Kd [4]: 600 nM
- Kd ratio ATP/ADP [5]: 307
- ATP F+ATP/F−ATP [5]: 3.2
- Kd [5]: 184000 nM
- kon [6]: 640000 M⁻¹ s⁻¹
- Kd [6]: 420 nM
- koff [6]: 0.27 s⁻¹

B11: T175F: MDCC-ParM (His6/I27C/T175F/C287A) (conjugate, UniProt P11904 1-320, looked up, variant I27C T175F C287A)
Plasmid segregation protein …: B2 chain with I27C, T175F, C287A
modifications: MDCC label; His6 tag
- ADP F+ADP/F−ADP [4]: 2.5
- Kd [4]: 4700 nM
- Kd ratio ATP/ADP [5]: 29
- ATP F+ATP/F−ATP [5]: 2.5
- Kd [5]: 137000 nM

B12: T175A: MDCC-ParM (His6/I27C/T175A/C287A) (conjugate, UniProt P11904 1-320, looked up, variant I27C T175A C287A)
Plasmid segregation protein …: B2 chain with I27C, T175A, C287A
modifications: MDCC label; His6 tag
- ADP F+ADP/F−ADP [4]: 3.3
- Kd [4]: 370 nM
- Kd ratio ATP/ADP [5]: 168
- ATP F+ATP/F−ATP [5]: 3.3
- Kd [5]: 62000 nM
